Source: the DeepSol protein solubility set

Experiment: soluble on expression in E. coli; label from the status in PepcDB or PDB records

Question: With “MSLYPAEHKEVMVQLMNQGNRSSLMQAWIDDGDTSLPPEKIQVPFMLTPPVAKIGANSGQQVKIKIMPNKLPTNKESIFYLNVLDIPPNSPEQEGKNALKFAMQNRIKLFYRPAGIAPVNKVTFKKLLVNRSGNGLVIKNDSANWVTISDVKANNVKVNYETIMIAPLESQSVNVKSNNANNWHLTIIDDHGNYISDKEGHHHHHH” as the sequence, how does the “soluble on expression in E. coli” value read?
Answer: Its value is “not soluble”.

Question: Which “soluble on expression in E. coli” value does the source give for “MSLYYEQPIYIATQENWDLELNPQIRTNRGFGLYSTLRFLDSPYSTGELNFGAFRENSSYFHDENLKNQTHYGIELKYSRDDLIKSLLSDNFQEGLWIDATYLNDVDYLNLGSRDYRDLNSLVTSKINYFLADENNFYGAYARYYIDTSKLSNNTTLQEYPSFQYHRFLNNLFDERLRYSFDASFHNFYRPAGSYANELNLDLPISYHNAFFGDFLHFTFTERFYASFVNYSNDPERNHEHYFRNTHDFNLYTDLSKAYENFFHTLNLGVNYILPGAKSGKITQDYLEEYDKENEHTSLYAVQYFYNNEGQKKLKHRISLDYLNKQNEFYELENLLTYYFNENINLNSEVLYSYEQSRFTNVISQIEVNTNSKFNWMFSHAYQNDEYGKYSFIGTRANYIATPNYNLFGGIWFDTQRAHANMWELGYTYQRKCWNYSLMYRERIDPQLTSGGITAKNQSGVYFIFNFYPLGGVKYDFSLAESENKIEGHHHHHH” here?
Answer: Its value is “not soluble”.

Question: Which “soluble on expression in E. coli” value does the source give for “MSMENFAQLLEESFTLQEMNPGEVITAEVVAIDQNFVTVNAGLKSESLIDVAEFKNAQGEIEVKVGDFVTVTIESVENGFGETKLSREKAKRAADWIALEEAMENGNILSGIINGKVKGGLTVMISSIRAFLPGSLVDVRPVKDTSHFEGKEIEFKVIKLDKKRNNVVVSRRAVLEATLGEERKALLENLQEGSVIKGIVKNITDYGAFVDLGGIDGLLHITDLAWRRVKHPSEVLEVGQEVEAKVLKFDQEKQRVSLGMKQLGEDPWSGLTRRYPQATRLFGKVSNLTDYGAFVEIEQGIEGLVHVSEMDWTNKNVHPSKVVQLGDEVEVMILEIDEGRRRISLGMKQCQANPWEEFAANHNKGDKISGAVKSITDFGVFVGLPGGIDGLVHLSDLSWTESGEEAVRKYKKGEEVEAVVLAIDVEKERISLGIKQLEGDPFGNFISVNDKGSLVKGSVKSVDAKGAVIALSDEVEGYLPASEFAADRVEDLTTKLKEGDEVEAVIVTVDRKNRSIKLSVKAKDAKESREALNSVNAAANANAGTTSLGDLLKAKLSGEQELEHHHHHH” here?
Answer: The value was “not soluble”.

Question: With “MSMLKKTKEFFGLAPYEAEHEDAYYADEPRYEGTAAYAPEYRERDYGYAPEAPAPVAPSPAPRSYQSTIVPVELHSFEDAQVIGGAFRDGDAVVFDMSLLSREEARRIVDFAAGLCFALRGKMQKIDSVTFAVVPELSNISTSELERAARIRAAALEHHHHHH” as the sequence, how does the “soluble on expression in E. coli” value read?
Answer: Its value is “soluble”.

Question: For “MSMPYDNEAKIKQAVILLQKIVNDTSVPRNIRRAATDAIRNLQDLGLSPAVRAANAIGILEDISQDPNMPTHARISIWNVVSILETVKD”, which “soluble on expression in E. coli” value is on record?
Answer: The value was “not soluble”.

Question: For “MSNASSTSSGRSSRAEVLWADVLSHIPFVKRFTTPDSRKEQKVRILSKNEVDEEDGVQLEQLIQNQEVILCHSSSMNFHQQCRGSVVDFEYIEKKVKVTVSSESDFPIWEDTDIWMQALSTPTSSLYAIDANTSVNSELIEDESVVQEQKEQISERAPLRLSDDIEEFGDVLVDVIKKKTDTKNNVFTITLGLTGFARFHAEIQLSKESTYYLNFDDGYEDDLASLASEEDILSGYQTIQNVDELCDKIGELTVTDVCIKTWFDILHNYAYIRLIVTSAKRKLQHFKLLTGHHVIIQSATSDRDTVLAVVSRVMKDGIVLTLQGVKKQTKNFVFSKNELFTIQIDHNYEDRLQKLTGKEEEHENLRRELINSDSDIRLHRSWKSNGKQYATFTSKNDAFKKIPFNTKFLLGKCWEAEGVLEKKADFIFAIRVADKNFSTPSTMTFEIKFTRNLVRNSKDFELSKAFYYVDFDLAHFVESDHCYSLLNAKSVNGKPDETVVKSCPIDEDLVFSVFPFQCGRRAEERRRGYQESQREVQSSTKKPDVKVEKNVKLEAPEKQNKRKDTALNPKEKYCAQKLEKQLNDQTKTPKQKPKQETSAGIKRESTQRPCVIPRTFETSNSKDASNKVPLQSVSEPKILLQDTNSRCAQPRKAVSHEGLKSHQQENVLKHLDNKHKFLCFVNIAKRIENDNGNPLVELSIGFDENGGKVQQSPWPLGIRMLLTDGLEKTEVKIQGDVQDTNGETVTFMIQQQLSDLDFLNSYKPKKLLACFREHGHNLK”, which “soluble on expression in E. coli” value is on record?
Answer: Its value is “not soluble”.

Question: For “MSNEKFNNVPKPAGNGPHTPEDHAIKGELTFEDKVVQKIIGLALENVDGLLTVDGGFFSNIAEKLVNTDNVTAGIDTEVGKKQVAVDMDIVVEYGKDIQDIYEKMKELISREVKKMTHLDVIEVNVNVVDIKSKEEYEEDSETVQDKVTGAAKSTGEFASEQTEKAKKAVNKGTEQVKENMEPRVELEHHHHHH”, which “soluble on expression in E. coli” value is on record?
Answer: Its value is “soluble”.

Question: With “MSNIKKYIIDYDWKASIEIEIDHDVMTEEKLHQINNFWSDSEYRLNKHGSVLNAVLIMLAQHALLIAISSDLNAYGVVCEFDWNDGNGQEGWPSMDGSEGIRITDIDTSGIFDSDDMTIKAA” as the sequence, how does the “soluble on expression in E. coli” value read?
Answer: The value was “soluble”.

Question: Which “soluble on expression in E. coli” value does the source give for “MSNNNTSIHDFDFSFICNYFKLLKRQGPGSPEATRKAVSFINELTDDAKIADIGCGTGGQTLFLADYVKGQITGIDLFPDFIEIFNENAVKANCADRVKGITGSMDNLPFQNEELDLIWSEGAIYNIGFERGMNEWSKYLKKGGFIAVSEASWFTSERPAEIEDFWMDAYPEISVIPTCIDKMERAGYTPTAHFILPENCWTEHYFAPQDEVRETFMKEHAGNKTAMDFMKGQQYERSLYSKYKDYYGYVFYIGQKRLEHHHHHH” here?
Answer: The value was “soluble”.

Question: For “MSNRKLSPDKTQPIYAPNNAFLDECVRVEIINILPLKVLRPAVKESTKYHQILASIQDVGLVEPPAVTPAPGTSGQYFLLDGHLRIEVLKDLGELKVDCLVATDDDTYSYNKRTNRLSAVQSNKMIVRAMERGVSAERLGKALGLSPQTIRQRFRLLNGICAEVVALLGDTDCPANVFNLLRQMKPLRQIEAAELMIGNKNLSVLLAKALLAATPPDQLVMIKKPSQDHQVSAESMARLERELAALQMQIKTVEEDYGPDVLHLTVIKGYLTKLLANAAVVRWLARHQPEYLKEFQSIAELTELPWADNGPEDDLQSTTAEG”, which “soluble on expression in E. coli” value is on record?
Answer: Its value is “not soluble”.

Question: For “MSNTDNSDKNTKPTGYRPPQTDFNTEFGNNLDYPRLGSVSFRRGTLTDNQESLWDANWPILGKDLTDAEDQRIDVAEWFGRCGHKTILEIGSGTGTSTAAMAPLEADTNIIAVELYKPGLAKLLGAVVRGDISNVRMIRGDGVEVLTRMLPEESLDGVRIYFPDPWPKARHHKRRIIQSGVLNLIASRLKPGGVLHVATDHADYAEWITELVNVEPQLEFMGWPWDECPQLTDRQVITKFEGKGLDKDHTITEFLWRRK”, which “soluble on expression in E. coli” value is on record?
Answer: Its value is “not soluble”.

Question: Which “soluble on expression in E. coli” value does the source give for “MSPIMARKPQIQAEQLAQKFVEKPEEQKDKQAVQKGQQLEGAKRWVADSELREQPVNSMQQVEHGPKAVILADDACWQTQRRVPAEIQLPQVGKISIPELSEKEIQRTIVAQPASYHKVQWNEFPEEPKYEIGAVPKTKTQDWVPVNNEQNELQRSIYKPARMSAVWPPPQDELVKDGHSPLVVKANEDTAWIQQDQNGVLKQAVWGKTSRINRVWPPPENESTLSDFGPQHMPVVQWPPPEAEAHEREQVEVLQKHIPTKKMERQWPPPPPQYQVVESSGEIETRYNPAEVDQQQQAVNSLRMGHIQA” here?
Answer: Its value is “not soluble”.

Question: With “MSPTSRPATGASLSAARRSREVADTVGGPVVDVLVVGLGATGAGAALDAAARGLGVVAVDAHDLAFGTSRWSSKLIHGGLRYLASGQLDVAHESAVERGVLMERTAPHLVRAQPFVLPLTPLVSRGQGALAWAGFRAGDTLRLAARTARATLPAPRRLSAVETRHLAPALRSDRLRGGLLSWDGRLADDARLVTALARTAAARGARILTRVRALELTGSGARVRDETTGEEGVIRARAVVNASGVWAGDLVDGIRIRPSRGTHLVLRSDRLGPLPAGLHVPIPGETNRFVLVLPQDDGRVYVGLTDEPVDGDVPDVPEVPETDVGFLLDVLGSVLDVPVHREDVVGAFAGLRPLLDTAPSDRPGAAPRTADVSRRHAVLTSSEGVITVVGGKLTTYRRMAEDAVDAAVAARGLAAGPSPTAALPLVGAAAPHTLAGVRAPRRLVRRYGTEAPAVQALASREPCLAERVLPGHPVTGAELVWALRHEGALDEADLLDRRTRVGLVPEDRAAALGAVRDLVGEVTADPRLEHHHHHH” as the sequence, how does the “soluble on expression in E. coli” value read?
Answer: Its value is “not soluble”.

Question: For “MSQGYAIELYFDPALENQVLKAWNVFARRQISTYLINNESRPHITLFSTTSSIDSTKLEPIIKSFSSKQEPISLSFSSIGSFSSDDNALFLSPTPSLSLIQLQLQLCEVIKKEGFEIGEEYRVDSWVPFCSVAVDVPKSRISEGFLVLRDLKLLVYGYAMDIGLVEFSPVREVFSFGLGNNLES”, which “soluble on expression in E. coli” value is on record?
Answer: Its value is “soluble”.
